{"source": "patent US20210017226A1", "about": "“METHOD OF GENERATING INTERACTING PEPTIDES” (Peption, LLC, priority 2017, published 2021)", "key": {"[1]": {"biological_target": "T1, PDGF-β target sequence (PTD10, […]) (Homo sapiens, UniProt P01127)", "T1 construct": "[…]; purchased Peptide 2.0", "assay": "Dot blot to detect the PDGF-β target sequence PTD10", "type": "binding", "conditions": "beta sheet target", "method": "(§1) Finally, the blot was incubated with the chromogenic substrates."}, "[2]": {"biological_target": "alkaline phosphatase target sequence (PTD8, […]) (Escherichia coli, UniProt P00634)", "conditions": "dot blot, coil-beta sheet-coil target", "quoted_text": "For dot blot analysis, 1 μl (2.5 μg) or 2 μl (5 μg) of samples were spotted onto the nitrocellulose (NC) membrane and dried completely. Then, non-specific sites were blocked by soaking the membrane in the blocking solution made for NC membranes [Thermo Fisher Scientific, WesternBreeze™ Blocker/Diluent (Part A and B), catalog #WB7050]. The membrane was washed twice with water (1 ml per cm^2 membrane), and incubated with the 1st antibody (Ab) in a binding/wash (BW) buffer [50 mM sodiumphosphate, pH 8.0, 300 mM NaCl, and 0.01% Tween 20] for 1 h. The membrane was washed 4 times (for 2 minutes per wash) with the wash buffer [Thermo Fisher Scientific, WesternBreeze™ Wash Solution, catalog #WB7003]. If the 1st oligopeptide was Anti-Cas9 Ab-HRP conjugate [Thermo Fisher Scientific, catalog #MAC133P] or the peptide-AP fusions, the membrane was washed twice with water, and incubated with the chromogenic substrates, Chromogenic Substrate (TMB) [Thermo Fisher Scientific, catalog #WP20004] for HRP and NBT/BCIP substrate solution for AP [Thermo Fisher Scientific, catalog #34042]. Otherwise, the membrane was incubated with in the blocking solution for 1 h. To detect His-tagged peptide and proteins, the Anti-6His Ab-HRP conjugate [Thermo Fisher Scientific, catalog 46-0707] was used. Then the membrane was washed four times with the wash buffer and two times with water. Finally, the blot was incubated with the chromogenic substrates."}, "[3]": {"test_system": "whole proteome of E. coli BL21 Star DE3", "assay": "Western blot to detect binders in the whole proteome of E. coli BL21 Star DE3 (specificity)", "type": "binding", "quoted_text": "For the western blot analysis, the protein samples were resolved in 4-20% gradient SDS-PAGE gel, transferred to NC membrane, and subjected to the western blot analysis using the same method for the dot blot analysis."}, "[4]": {"biological_target": "T2, Cas9 target sequence (PTD12, EKLYLYYLQ, Helix: E813 to Q821) (Streptococcus pyogenes serotype M1, UniProt Q99ZW2)", "T2 construct": "[…]; purchased Peptide 2.0", "assay": "Dot blot to detect the Cas9 target sequence peptide PTD12", "type": "binding", "conditions": "for interaction of His-tagged synthetic CAAP oligopeptide with the target peptide PTD12: dot blot, peptide as 1st Ab, Anti-6His Ab-HRP detection", "method": "as §1\nFor the image processing, we used Adobe Photoshop 7.0. Quantitative image analysis of the digital images was carried out using measuring tools of imaging software ImageJ (Schneider et al. 2012). Image analysis results were calculated by averaging data from three independent experiments."}, "Cas9 protein [5]": {"biological_target": "T3, Cas9 protein (Streptococcus pyogenes serotype M1, UniProt Q99ZW2)", "T3 construct": "made in house; host or cells: E. coli BL21 Star (DE3)", "T3 sequence (Q99ZW2 whole entry)": "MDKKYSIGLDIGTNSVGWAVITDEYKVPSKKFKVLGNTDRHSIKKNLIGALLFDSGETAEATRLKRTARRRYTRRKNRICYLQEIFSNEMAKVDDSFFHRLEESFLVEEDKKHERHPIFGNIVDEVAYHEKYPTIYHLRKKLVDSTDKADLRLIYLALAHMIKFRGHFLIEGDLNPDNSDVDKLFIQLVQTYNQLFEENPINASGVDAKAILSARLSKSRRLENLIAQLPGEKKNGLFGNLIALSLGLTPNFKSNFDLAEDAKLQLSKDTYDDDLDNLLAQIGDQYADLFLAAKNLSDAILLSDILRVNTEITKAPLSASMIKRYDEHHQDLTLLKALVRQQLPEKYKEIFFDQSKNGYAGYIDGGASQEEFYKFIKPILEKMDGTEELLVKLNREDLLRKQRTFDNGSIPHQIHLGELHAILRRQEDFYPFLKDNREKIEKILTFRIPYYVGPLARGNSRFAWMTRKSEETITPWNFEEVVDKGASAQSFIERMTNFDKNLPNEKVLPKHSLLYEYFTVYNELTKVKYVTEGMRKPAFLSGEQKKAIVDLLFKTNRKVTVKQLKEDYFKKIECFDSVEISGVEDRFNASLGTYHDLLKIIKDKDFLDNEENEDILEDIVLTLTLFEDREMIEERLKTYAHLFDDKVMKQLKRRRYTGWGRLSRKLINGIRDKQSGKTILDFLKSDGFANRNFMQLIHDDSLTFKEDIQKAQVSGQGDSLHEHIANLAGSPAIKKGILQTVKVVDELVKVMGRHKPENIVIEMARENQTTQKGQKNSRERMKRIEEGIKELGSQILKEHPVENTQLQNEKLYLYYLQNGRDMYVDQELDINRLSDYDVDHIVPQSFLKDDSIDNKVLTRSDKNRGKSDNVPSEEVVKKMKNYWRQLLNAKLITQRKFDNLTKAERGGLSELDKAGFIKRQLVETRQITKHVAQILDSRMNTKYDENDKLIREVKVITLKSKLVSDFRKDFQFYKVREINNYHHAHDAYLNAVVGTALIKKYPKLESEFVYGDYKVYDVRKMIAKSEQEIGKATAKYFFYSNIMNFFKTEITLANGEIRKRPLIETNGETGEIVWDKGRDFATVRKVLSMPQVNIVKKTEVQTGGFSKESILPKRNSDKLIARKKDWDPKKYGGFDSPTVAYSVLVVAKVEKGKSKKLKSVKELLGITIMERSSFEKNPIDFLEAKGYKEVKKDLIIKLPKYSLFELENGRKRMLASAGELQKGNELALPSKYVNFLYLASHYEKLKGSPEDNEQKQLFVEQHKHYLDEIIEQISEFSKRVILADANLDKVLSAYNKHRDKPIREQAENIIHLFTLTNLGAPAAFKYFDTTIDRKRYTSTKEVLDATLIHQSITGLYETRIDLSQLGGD", "assay": "Western blot to detect whole Cas9 protein (denatured)", "type": "binding", "conditions": "Cas9 (no tag), 4-20% SDS-PAGE", "method": "as §1"}, "[6]": {"biological_target": "control peptide (PTD8, unrelated peptide) (Escherichia coli, UniProt P00634)", "conditions": "dot blot, unrelated target (negative control)", "quoted_text": "For dot blot analysis, 1 μl (2.5 μg) or 2 μl (5 μg) of samples were spotted onto the nitrocellulose (NC) membrane and dried completely. Then, non-specific sites were blocked by soaking the membrane in the blocking solution made for NC membranes [Thermo Fisher Scientific, WesternBreeze™ Blocker/Diluent (Part A and B), catalog #WB7050]. The membrane was washed twice with water (1 ml per cm^2 membrane), and incubated with the 1st antibody (Ab) in a binding/wash (BW) buffer [50 mM sodiumphosphate, pH 8.0, 300 mM NaCl, and 0.01% Tween 20] for 1 h. The membrane was washed 4 times (for 2 minutes per wash) with the wash buffer [Thermo Fisher Scientific, WesternBreeze™ Wash Solution, catalog #WB7003]. If the 1st oligopeptide was Anti-Cas9 Ab-HRP conjugate [Thermo Fisher Scientific, catalog #MAC133P] or the peptide-AP fusions, the membrane was washed twice with water, and incubated with the chromogenic substrates, Chromogenic Substrate (TMB) [Thermo Fisher Scientific, catalog #WP20004] for HRP and NBT/BCIP substrate solution for AP [Thermo Fisher Scientific, catalog #34042]. Otherwise, the membrane was incubated with in the blocking solution for 1 h. To detect His-tagged peptide and proteins, the Anti-6His Ab-HRP conjugate [Thermo Fisher Scientific, catalog 46-0707] was used. Then the membrane was washed four times with the wash buffer and two times with water. […]"}, "Cas9 protein [7]": {"biological_target": "T3, Cas9 protein", "assay": "Dot blot to detect whole Cas9 protein (non-denatured)", "type": "binding", "conditions": "Cas9 (no tag)", "method": "as §1"}, "Cas9 nuclease": {"biological_target": "T4, Cas9 nuclease (Streptococcus pyogenes serotype M1, UniProt Q99ZW2)", "T4 construct": "made in house; host or cells: E. coli BL21 Star (DE3)", "T4 sequence (Q99ZW2 whole entry, the tested form may be a part)": "as the sequence (Q99ZW2 whole entry) above", "assay": "Cas9 activity assay in vitro (RNA-guided cleavage of 510 bp human AAVS1 DNA)", "type": "biochemical", "from_the_text": "The sgRNA targeting human AAVS1 region (target sequence […] (SEQ ID NO: 36), PAM sequence underlined) was synthesized by in vitro transcription using a 118 bp PCR-assembled DNA fragment AAVS1_T23826 as template, following the manufacturer's protocol [Thermo Fisher Scientific, TranscriptAid T7 High Yield Transcription Kit, catalog #K0441]. The sgRNA product was purified using the GeneJET RNA Purification Micro Column [Thermo Fisher Scientific, catalog #K0841].\nA 510 bp human AAVS1 region was amplified from HEK293 genomic DNA by PCR using a primer set (CH1161 and CH1162) and used as a target DNA for the in vitro CRISPR/Cas9 assay. Performance of the Cas9 protein was assessed in various concentrations of Cas9 [100, 50, 25, 12.5, and 0 ng] in presence or absence of sgRNA and peptides (PTD14 (SEQ ID NO: 11) and PTD16 (SEQ ID NO: 30)) in the 1× buffer K [20 mM Tris-HCl, pH 8.5, 10 mM MgCl2, 1 mM Dithiothreitol (DTT), and 100 mM KCl]. The PTD16 (SEQ ID NO: 30) was used as an unrelated peptide control. The reaction mixture was incubated at 37° C. for 15 minutes. The reaction was stopped by adding a stop buffer [1 mM Tris-HCl (pH 7.5), 10 mM EDTA, 6.5% (w/v) Sucrose, 0.03% (w/v) Bromophenol Blue] and heat inactivated at 75° C. for 5 minutes. The reaction samples were resolved in 4% agarose gel."}}, "note": "Entries after “also recorded” stand apart in the source; their conditions may differ."}
{"sequence": "DLDYAQLRDKCYPENEDRLQSYDLDGSGSHHHHHH [PTD18, His-tagged CAAP oligopeptide dimer, parallel and antiparallel, against PDGF-β]", "values": [{"measurement": "interaction with the PDGF-β target oligopeptide PTD10", "setting": "[1]", "value": "bound to the target"}]}
{"sequence": "EDRLQSYDLDGSGSHHHHHH [PTD17, His-tagged CAAP oligopeptide monomer, antiparallel, against PDGF-β]", "values": [{"measurement": "interaction with the PDGF-β target oligopeptide PTD10", "setting": "[1]", "value": "no detectable interaction"}]}
{"sequence": "EYRLYLRALCYPENLSRAYLSYEGSGSHHHHHH [PTD16]", "values": [{"measurement": "interaction with the AP target oligopeptide PTD8", "setting": "[2]", "value": "bound to the target"}]}
{"sequence": "GSGSHHHHHH [PTD20, linker-His-tag only, negative control, reference compound]", "values": [{"measurement": "interaction with the AP target oligopeptide PTD8", "setting": "[2]", "value": "no detectable interaction"}, {"measurement": "interaction with the PDGF-β target oligopeptide PTD10", "setting": "[1]", "value": "no detectable interaction"}]}
{"sequence": "LEQIKIRLFGSGSHHHHHH [PTD13]", "values": [{"measurement": "number of major bands detected in E. coli whole cell lysate", "setting": "[3]", "value": "one"}, {"measurement": "number of minor bands detected in E. coli whole cell lysate", "setting": "[3]", "value": 2}, {"measurement": "interaction of His-tagged synthetic CAAP oligopeptide with the target peptide PTD12", "setting": "[4]", "value": "could interact; also recorded: detected"}, {"measurement": "detection of whole Cas9 protein in western blot", "setting": "Cas9 protein [5]", "value": "unable to detect"}, {"measurement": "interaction of His-tagged synthetic CAAP oligopeptide with the control peptide PTD8", "setting": "[6]", "value": "no interaction"}, {"measurement": "detection of whole Cas9 protein in dot blot", "setting": "Cas9 protein [7]", "value": "unable to detect"}]}
{"sequence": "LLQVDVILLCYPENLEQIKIRLFGSGSHHHHHH [PTD14]", "values": [{"measurement": "number of major bands detected in E. coli whole cell lysate", "setting": "[3]", "value": "one"}, {"measurement": "number of minor bands detected in E. coli whole cell lysate", "setting": "[3]", "value": 4}, {"measurement": "strength of interaction with PTD12 relative to monomer PTD13", "setting": "[4]; dot blot densitometry, dimer vs monomer", "value": "stronger (two-fold)"}, {"measurement": "interaction of His-tagged synthetic CAAP oligopeptide with the target peptide PTD12", "setting": "[4]", "value": "could interact"}, {"measurement": "detection of whole Cas9 protein in western blot", "setting": "Cas9 protein [5]", "value": "able to detect"}, {"measurement": "interaction of His-tagged synthetic CAAP oligopeptide with the control peptide PTD8", "setting": "[6]", "value": "no interaction"}, {"measurement": "effect on RNA-guided DNA cleavage by Cas9 nuclease", "setting": "Cas9 nuclease; 510 bp AAVS1 DNA, 37° C. 15 minutes, PTD16 as unrelated peptide control", "value": "no significant effect"}, {"measurement": "non-specific DNA binding activity of the Cas9 protein directed by the peptide", "setting": "Cas9 nuclease; presence or absence of gRNA, various Cas9 concentrations", "value": "significant induction; also recorded: very strong"}, {"measurement": "detection of whole Cas9 protein in dot blot", "setting": "Cas9 protein [7]", "value": "able to detect"}]}
{"sequence": "LSRAYLSYEGSGSHHHHHH [PTD15]", "values": [{"measurement": "interaction with the AP target oligopeptide PTD8", "setting": "[2]", "value": "no detectable interaction"}]}
